The target in assay [1] is PorU (Porphyromonas gingivalis W50 (endogenous in OMVs)). The assay is described as follows: native gel or EMSA; 2D BN-PAGE (Coomassie, spots identified by MS, densitometry) of large-scale glycerol gradient fractions F15-F17 of 1% DDM-solubilised OMV lysate of WT W50. Background: Mobility shift assays separate free from complexed probe on a gel.
For assay [2], the target named is PorQ (strain ATCC 33277) (Porphyromonas gingivalis ATCC 33277 (endogenous in OMVs)). The experiment in a line: native gel or EMSA. The note with it: scale: PorZ per PorQ.

In the case of PorQ (natural protein), in assay [1] (scale: PorQ per PorU), the stoichiometry N stood at 1. Consider PorV (natural protein), for which the stoichiometry N in assay [1] (scale: PorV per PorU) came out at 3.

The substance PorZ (natural protein) came in with a stoichiometry N in assay [1] (scale: PorZ per PorU) of 1. Substance “PorZ (strain ATCC 33277) (natural protein)” yielded a stoichiometry N in assay [2] of 1.

What is called stoichiometry N is a count of units in the complex or per binding partner.

These data come from PMC5562754.
